Experimental data published in the supplement of paper PMC10065799, “High-throughput profiling of sequence recognition by tyrosine kinases and SH2 domains using bacterial peptide display” (eLife, 2023).
One block for each sequence: values may come before it.

How the values were obtained:
[1] = molecular target: c-Src SH2; test: SH2 binding enrichment of the phosphorylated peptide, bacterial display (enrichment ratio); higher = better substrate or ligand; peptides without Tyr show the background
[2] = molecular target: SHP2-C SH2; test: as above
[3] = molecular target: Grb2 SH2 (UniProt P62993); test: as above
[4] = molecular target: FGFR3 (UniProt P22607); test: phosphorylation enrichment, bacterial display (enrichment ratio); higher = better substrate or ligand; peptides without Tyr show the background
[5] = molecular target: EPHB2 (UniProt P29323); test: as above
[6] = molecular target: EPHB1 (UniProt P54762); test: as above
EPHB1, sequence (P54762 whole entry, looked up): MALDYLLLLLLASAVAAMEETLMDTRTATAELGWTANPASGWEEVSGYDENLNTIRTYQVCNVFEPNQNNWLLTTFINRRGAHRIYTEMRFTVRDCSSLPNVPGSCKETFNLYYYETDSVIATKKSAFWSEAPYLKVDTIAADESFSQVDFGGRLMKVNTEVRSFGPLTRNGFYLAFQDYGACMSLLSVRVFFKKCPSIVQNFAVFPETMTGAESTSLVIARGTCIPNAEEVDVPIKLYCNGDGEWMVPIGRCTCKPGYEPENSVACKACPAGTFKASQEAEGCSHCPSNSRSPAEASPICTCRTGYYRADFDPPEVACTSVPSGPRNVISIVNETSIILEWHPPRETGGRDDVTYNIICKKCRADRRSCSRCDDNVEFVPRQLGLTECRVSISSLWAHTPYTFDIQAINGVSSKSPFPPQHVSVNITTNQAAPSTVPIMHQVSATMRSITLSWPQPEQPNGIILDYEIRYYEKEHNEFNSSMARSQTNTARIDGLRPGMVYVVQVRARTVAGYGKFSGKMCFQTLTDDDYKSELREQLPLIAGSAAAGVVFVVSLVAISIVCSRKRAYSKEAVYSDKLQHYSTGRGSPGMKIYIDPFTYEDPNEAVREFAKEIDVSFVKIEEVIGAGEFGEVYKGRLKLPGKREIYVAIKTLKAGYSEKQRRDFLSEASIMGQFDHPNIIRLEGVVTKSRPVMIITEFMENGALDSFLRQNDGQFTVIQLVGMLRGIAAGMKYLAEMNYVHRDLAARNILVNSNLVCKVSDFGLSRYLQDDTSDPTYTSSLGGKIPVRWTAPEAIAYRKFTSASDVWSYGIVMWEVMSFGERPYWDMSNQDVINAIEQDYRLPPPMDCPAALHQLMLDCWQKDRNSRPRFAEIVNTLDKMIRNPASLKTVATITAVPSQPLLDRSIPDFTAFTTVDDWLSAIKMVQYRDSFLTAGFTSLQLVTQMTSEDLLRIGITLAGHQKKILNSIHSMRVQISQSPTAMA

[7] = test system: c-Src; test: as above
[8] = molecular target: Fes (UniProt P07332); test: as above
[9] = molecular target: Hck (UniProt P08631); test: as above
Hck, sequence (P08631 whole entry, looked up): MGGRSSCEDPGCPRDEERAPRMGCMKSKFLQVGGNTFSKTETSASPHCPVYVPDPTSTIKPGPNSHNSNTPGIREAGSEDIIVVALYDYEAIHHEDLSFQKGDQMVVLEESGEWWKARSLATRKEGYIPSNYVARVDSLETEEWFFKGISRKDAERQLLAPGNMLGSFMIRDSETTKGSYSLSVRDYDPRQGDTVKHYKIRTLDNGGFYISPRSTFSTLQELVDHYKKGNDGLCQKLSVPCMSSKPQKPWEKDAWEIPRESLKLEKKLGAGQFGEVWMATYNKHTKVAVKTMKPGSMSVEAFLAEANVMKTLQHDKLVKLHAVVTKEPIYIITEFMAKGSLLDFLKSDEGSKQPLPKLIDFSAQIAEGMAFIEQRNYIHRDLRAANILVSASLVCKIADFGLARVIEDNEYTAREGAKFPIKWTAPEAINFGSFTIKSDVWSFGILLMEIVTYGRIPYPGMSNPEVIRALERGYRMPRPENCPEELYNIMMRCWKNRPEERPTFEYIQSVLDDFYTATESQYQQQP

[10] = molecular target: Jak2 (UniProt O60674); test: as above
Jak2, sequence (O60674 whole entry, looked up): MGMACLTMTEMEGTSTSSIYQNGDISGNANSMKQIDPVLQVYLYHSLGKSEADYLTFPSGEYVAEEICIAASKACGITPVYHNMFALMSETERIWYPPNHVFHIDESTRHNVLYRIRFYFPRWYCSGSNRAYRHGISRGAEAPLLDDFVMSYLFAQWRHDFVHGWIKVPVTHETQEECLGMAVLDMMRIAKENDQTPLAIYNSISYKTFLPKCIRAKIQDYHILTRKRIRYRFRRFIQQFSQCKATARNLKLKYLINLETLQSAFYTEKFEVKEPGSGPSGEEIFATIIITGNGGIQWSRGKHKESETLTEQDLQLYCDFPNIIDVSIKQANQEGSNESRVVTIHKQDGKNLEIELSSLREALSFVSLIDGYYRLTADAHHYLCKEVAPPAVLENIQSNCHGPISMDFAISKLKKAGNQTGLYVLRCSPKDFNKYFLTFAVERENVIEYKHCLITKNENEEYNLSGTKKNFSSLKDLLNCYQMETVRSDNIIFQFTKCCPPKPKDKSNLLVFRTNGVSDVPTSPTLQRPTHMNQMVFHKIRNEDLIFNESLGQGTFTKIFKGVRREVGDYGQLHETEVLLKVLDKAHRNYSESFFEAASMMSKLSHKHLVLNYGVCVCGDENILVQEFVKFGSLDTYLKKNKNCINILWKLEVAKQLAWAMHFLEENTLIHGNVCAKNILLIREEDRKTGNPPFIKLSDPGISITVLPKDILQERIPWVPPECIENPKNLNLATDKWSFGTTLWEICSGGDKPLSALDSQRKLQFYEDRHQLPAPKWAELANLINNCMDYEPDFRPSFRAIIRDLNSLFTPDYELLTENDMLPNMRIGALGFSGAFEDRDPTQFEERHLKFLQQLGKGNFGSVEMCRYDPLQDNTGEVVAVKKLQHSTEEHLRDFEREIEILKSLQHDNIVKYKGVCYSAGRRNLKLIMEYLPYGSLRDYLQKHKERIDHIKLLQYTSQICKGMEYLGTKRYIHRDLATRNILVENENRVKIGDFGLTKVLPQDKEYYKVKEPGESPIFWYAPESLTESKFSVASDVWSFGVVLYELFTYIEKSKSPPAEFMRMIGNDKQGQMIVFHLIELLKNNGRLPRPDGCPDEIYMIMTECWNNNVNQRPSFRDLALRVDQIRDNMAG

[11] = test system: AncSZ; test: as above
[12] = test system: Fer (mouse); test: as above
[13] = molecular target: MERTK (UniProt Q12866); test: as above
MERTK, sequence (Q12866 whole entry, looked up): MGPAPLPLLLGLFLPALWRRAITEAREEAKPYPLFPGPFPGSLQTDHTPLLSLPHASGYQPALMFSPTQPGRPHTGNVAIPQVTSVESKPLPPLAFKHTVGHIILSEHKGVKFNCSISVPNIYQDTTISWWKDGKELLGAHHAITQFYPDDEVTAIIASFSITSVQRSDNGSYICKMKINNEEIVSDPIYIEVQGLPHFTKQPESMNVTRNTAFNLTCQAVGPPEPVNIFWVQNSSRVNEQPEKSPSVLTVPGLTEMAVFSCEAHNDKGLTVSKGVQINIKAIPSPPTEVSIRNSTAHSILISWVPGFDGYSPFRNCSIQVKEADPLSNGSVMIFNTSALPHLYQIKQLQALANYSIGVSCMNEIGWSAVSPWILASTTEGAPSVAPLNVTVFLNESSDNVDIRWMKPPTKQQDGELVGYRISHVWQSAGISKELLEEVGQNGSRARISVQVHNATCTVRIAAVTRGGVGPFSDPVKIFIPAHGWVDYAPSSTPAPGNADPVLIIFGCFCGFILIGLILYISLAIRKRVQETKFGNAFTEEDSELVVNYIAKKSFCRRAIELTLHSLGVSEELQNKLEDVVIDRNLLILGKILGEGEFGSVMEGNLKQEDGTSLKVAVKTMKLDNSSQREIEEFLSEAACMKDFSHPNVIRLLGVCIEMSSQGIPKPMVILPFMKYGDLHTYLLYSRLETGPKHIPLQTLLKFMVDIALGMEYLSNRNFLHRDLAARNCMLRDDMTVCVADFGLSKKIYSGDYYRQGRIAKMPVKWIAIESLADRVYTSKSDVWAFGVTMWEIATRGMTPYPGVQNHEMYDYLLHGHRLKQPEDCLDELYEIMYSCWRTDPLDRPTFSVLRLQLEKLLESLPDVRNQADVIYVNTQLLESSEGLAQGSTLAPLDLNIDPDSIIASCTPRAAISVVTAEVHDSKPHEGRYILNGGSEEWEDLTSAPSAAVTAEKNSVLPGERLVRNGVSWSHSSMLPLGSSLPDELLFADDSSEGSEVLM

[14] = test system: c-Abl (mouse); test: as above
[15] = molecular target: Fyn (UniProt P06241); test: as above
Fyn, sequence (P06241 whole entry, looked up): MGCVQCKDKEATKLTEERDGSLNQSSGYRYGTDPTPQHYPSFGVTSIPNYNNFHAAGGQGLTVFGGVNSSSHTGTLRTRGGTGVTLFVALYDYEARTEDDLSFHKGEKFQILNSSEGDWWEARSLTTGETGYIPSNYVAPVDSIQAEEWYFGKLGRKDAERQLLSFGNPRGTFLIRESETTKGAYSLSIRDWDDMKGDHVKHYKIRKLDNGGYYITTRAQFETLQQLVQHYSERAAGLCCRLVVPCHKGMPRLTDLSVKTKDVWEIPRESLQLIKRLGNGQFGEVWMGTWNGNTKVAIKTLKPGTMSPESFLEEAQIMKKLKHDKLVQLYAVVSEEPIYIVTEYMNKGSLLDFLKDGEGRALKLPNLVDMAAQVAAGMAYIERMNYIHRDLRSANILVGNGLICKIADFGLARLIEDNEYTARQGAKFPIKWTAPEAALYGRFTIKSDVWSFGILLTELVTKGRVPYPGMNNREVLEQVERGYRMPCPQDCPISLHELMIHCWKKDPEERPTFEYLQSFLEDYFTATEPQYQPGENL

[16] = molecular target: FGFR1 (UniProt P11362); test: as above
FGFR1, sequence (P11362 whole entry, looked up, the tested form may be a part): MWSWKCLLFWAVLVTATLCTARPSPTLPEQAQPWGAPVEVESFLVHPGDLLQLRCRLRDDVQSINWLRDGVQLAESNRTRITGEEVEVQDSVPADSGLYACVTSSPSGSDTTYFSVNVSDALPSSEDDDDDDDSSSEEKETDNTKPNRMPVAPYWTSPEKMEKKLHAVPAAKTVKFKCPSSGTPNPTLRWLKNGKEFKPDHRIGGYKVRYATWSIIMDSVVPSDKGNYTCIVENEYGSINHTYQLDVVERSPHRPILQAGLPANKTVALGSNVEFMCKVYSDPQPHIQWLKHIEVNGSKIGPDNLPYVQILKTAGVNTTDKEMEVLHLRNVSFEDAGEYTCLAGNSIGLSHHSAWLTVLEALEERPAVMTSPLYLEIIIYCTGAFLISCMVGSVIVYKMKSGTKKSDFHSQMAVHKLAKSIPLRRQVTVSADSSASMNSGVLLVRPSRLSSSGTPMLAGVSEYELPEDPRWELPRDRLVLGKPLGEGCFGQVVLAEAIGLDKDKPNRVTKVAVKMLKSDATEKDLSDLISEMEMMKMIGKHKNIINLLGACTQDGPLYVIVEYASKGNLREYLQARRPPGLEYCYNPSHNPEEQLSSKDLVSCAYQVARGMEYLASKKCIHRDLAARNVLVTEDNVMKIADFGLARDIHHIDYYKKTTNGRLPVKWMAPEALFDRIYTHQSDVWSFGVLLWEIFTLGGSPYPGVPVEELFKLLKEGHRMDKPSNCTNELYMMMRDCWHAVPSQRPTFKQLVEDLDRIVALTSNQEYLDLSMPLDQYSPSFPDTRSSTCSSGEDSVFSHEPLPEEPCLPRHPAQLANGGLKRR
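Throughout, for SH2 binding enrichment of the phosphorylated peptide, bacterial display: peptide library displayed on the E. coli surface as eCPX fusions, selected cells deep-sequenced, score is each peptide's frequency after selection divided by its frequency in the input.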
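Throughout, for phosphorylation enrichment, bacterial display: 11-residue human phosphosite peptides and single-mutation variants displayed on the E. coli surface, counted by deep sequencing, each peptide's frequency after selection divided by its frequency in the unselected input library; frequency after pTyr selection over input frequency; kinase dosed for 20-30% of maximal phosphorylation in three min.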

Sequence: FGEFRYRSVIK [CFTR_Y517_D513G_YF]
SH2 binding enrichment [1]: 0.423
SH2 binding enrichment [2]: 0.426
SH2 binding enrichment [3]: 0.567
phosphorylation enrichment [4]: 0.541
phosphorylation enrichment [5]: 0.559
phosphorylation enrichment [6]: 0.558
phosphorylation enrichment [7]: 0.426
phosphorylation enrichment [8]: 0.891
phosphorylation enrichment [9]: 0.565
phosphorylation enrichment [10]: 0.744
phosphorylation enrichment [11]: 0.728
phosphorylation enrichment [12]: 0.396
phosphorylation enrichment [13]: 0.409
phosphorylation enrichment [14]: 0.574
phosphorylation enrichment [15]: 0.409
phosphorylation enrichment [16]: 0.44

Sequence: DEENFYQGSME [ASCC1_Y36_D34N]
SH2 binding enrichment [1]: 0.556
SH2 binding enrichment [2]: 0.701
SH2 binding enrichment [3]: 0.891
phosphorylation enrichment [4]: 0.647
phosphorylation enrichment [5]: 0.604
phosphorylation enrichment [6]: 0.588
phosphorylation enrichment [7]: 0.733
phosphorylation enrichment [8]: 1.36
phosphorylation enrichment [9]: 0.7
phosphorylation enrichment [10]: 1.05
phosphorylation enrichment [11]: 1.3
phosphorylation enrichment [12]: 0.624
phosphorylation enrichment [13]: 0.517
phosphorylation enrichment [14]: 0.821
phosphorylation enrichment [15]: 0.498
phosphorylation enrichment [16]: 0.465

Sequence: RPCVVYGGADI [DDX3X_Y301]
SH2 binding enrichment [1]: 0.6
SH2 binding enrichment [2]: 0.773
SH2 binding enrichment [3]: 0.823
phosphorylation enrichment [4]: 0.735
phosphorylation enrichment [5]: 0.543
phosphorylation enrichment [6]: 0.901
phosphorylation enrichment [7]: 1.44
phosphorylation enrichment [8]: 1.02
phosphorylation enrichment [9]: 1.12
phosphorylation enrichment [10]: 0.668
phosphorylation enrichment [11]: 1
phosphorylation enrichment [12]: 0.653
phosphorylation enrichment [13]: 0.642
phosphorylation enrichment [14]: 0.703
phosphorylation enrichment [15]: 1.07
phosphorylation enrichment [16]: 0.715

Sequence: KRFRIYHLATS [BRCA2_Y3009_YF]
SH2 binding enrichment [1]: 1.24
SH2 binding enrichment [2]: 1.18
SH2 binding enrichment [3]: 1.05
phosphorylation enrichment [4]: 0.481
phosphorylation enrichment [5]: 0.435
phosphorylation enrichment [6]: 0.353
phosphorylation enrichment [7]: 0.482
phosphorylation enrichment [8]: 1.57
phosphorylation enrichment [9]: 0.454
phosphorylation enrichment [10]: 0.439
phosphorylation enrichment [11]: 0.567
phosphorylation enrichment [12]: 0.422
phosphorylation enrichment [13]: 0.38
phosphorylation enrichment [14]: 0.391
phosphorylation enrichment [15]: 0.434
phosphorylation enrichment [16]: 0.358

Sequence: FADIAYNFRHR [PAH_Y166_G171R_YF]
SH2 binding enrichment [1]: 0.547
SH2 binding enrichment [2]: 0.872
SH2 binding enrichment [3]: 0.888
phosphorylation enrichment [4]: 0.44
phosphorylation enrichment [5]: 0.425
phosphorylation enrichment [6]: 0.343
phosphorylation enrichment [7]: 0.415
phosphorylation enrichment [8]: 0.652
phosphorylation enrichment [9]: 0.374
phosphorylation enrichment [10]: 0.487
phosphorylation enrichment [11]: 0.577
phosphorylation enrichment [12]: 0.348
phosphorylation enrichment [13]: 0.405
phosphorylation enrichment [14]: 0.537
phosphorylation enrichment [15]: 0.407
phosphorylation enrichment [16]: 0.317

Sequence: ALDHKYHGGGG [HBB_Y146_A143D]
SH2 binding enrichment [1]: 0.479
SH2 binding enrichment [2]: 0.6
SH2 binding enrichment [3]: 0.863
phosphorylation enrichment [4]: 0.392
phosphorylation enrichment [5]: 0.355
phosphorylation enrichment [6]: 0.342
phosphorylation enrichment [7]: 0.372
phosphorylation enrichment [8]: 0.526
phosphorylation enrichment [9]: 0.406
phosphorylation enrichment [10]: 0.455
phosphorylation enrichment [11]: 0.458
phosphorylation enrichment [12]: 0.321
phosphorylation enrichment [13]: 0.381
phosphorylation enrichment [14]: 0.425
phosphorylation enrichment [15]: 0.375
phosphorylation enrichment [16]: 0.365

Sequence: LAVGDYMRRQK [ATM_Y1915_V1913G]
SH2 binding enrichment [1]: 0.37
SH2 binding enrichment [2]: 0.695
SH2 binding enrichment [3]: 0.597
phosphorylation enrichment [4]: 0.411
phosphorylation enrichment [5]: 0.41
phosphorylation enrichment [6]: 0.441
phosphorylation enrichment [7]: 0.503
phosphorylation enrichment [8]: 0.734
phosphorylation enrichment [9]: 0.504
phosphorylation enrichment [10]: 0.691
phosphorylation enrichment [11]: 0.696
phosphorylation enrichment [12]: 0.504
phosphorylation enrichment [13]: 0.476
phosphorylation enrichment [14]: 0.555
phosphorylation enrichment [15]: 0.545
phosphorylation enrichment [16]: 0.437

Sequence: IKNSGYISQFL [EIF2AK3_Y585_R588Q_YF]
SH2 binding enrichment [1]: 0.573
SH2 binding enrichment [2]: 0.878
SH2 binding enrichment [3]: 0.908
phosphorylation enrichment [4]: 0.474
phosphorylation enrichment [5]: 0.458
phosphorylation enrichment [6]: 0.434
phosphorylation enrichment [7]: 0.385
phosphorylation enrichment [8]: 0.579
phosphorylation enrichment [9]: 0.458
phosphorylation enrichment [10]: 0.404
phosphorylation enrichment [11]: 0.531
phosphorylation enrichment [12]: 0.377
phosphorylation enrichment [13]: 0.327
phosphorylation enrichment [14]: 0.625
phosphorylation enrichment [15]: 0.531
phosphorylation enrichment [16]: 0.445

Sequence: GVLDIYGFEIL [MYO1A_Y382]
SH2 binding enrichment [1]: 0.343
SH2 binding enrichment [2]: 0.574
SH2 binding enrichment [3]: 0.793
phosphorylation enrichment [4]: 0.787
phosphorylation enrichment [5]: 0.541
phosphorylation enrichment [6]: 0.903
phosphorylation enrichment [7]: 1.76
phosphorylation enrichment [8]: 1.14
phosphorylation enrichment [9]: 1.59
phosphorylation enrichment [10]: 0.978
phosphorylation enrichment [11]: 1.14
phosphorylation enrichment [12]: 0.694
phosphorylation enrichment [13]: 0.41
phosphorylation enrichment [14]: 0.695
phosphorylation enrichment [15]: 2.92
phosphorylation enrichment [16]: 0.579

Sequence: MSRNLYSGDFF [DDR2_Y736_YF]
SH2 binding enrichment [1]: 0.773
SH2 binding enrichment [2]: 0.611
SH2 binding enrichment [3]: 0.83
phosphorylation enrichment [4]: 2.16
phosphorylation enrichment [5]: 10
phosphorylation enrichment [6]: 7.35
phosphorylation enrichment [7]: 4.14
phosphorylation enrichment [8]: 0.98
phosphorylation enrichment [9]: 5.38
phosphorylation enrichment [10]: 0.655
phosphorylation enrichment [11]: 0.825
phosphorylation enrichment [12]: 1.57
phosphorylation enrichment [13]: 9.92
phosphorylation enrichment [14]: 0.797
phosphorylation enrichment [15]: 5.54
phosphorylation enrichment [16]: 2.41

Sequence: KKHIPCREHKS [CSNK1G2_Y206_Y206C]
SH2 binding enrichment [1]: 1.68
SH2 binding enrichment [2]: 1.62
SH2 binding enrichment [3]: 1.6
phosphorylation enrichment [4]: 3.13
phosphorylation enrichment [5]: 0.962
phosphorylation enrichment [6]: 1.6
phosphorylation enrichment [7]: 0.832
phosphorylation enrichment [8]: 2.35
phosphorylation enrichment [9]: 0.876
phosphorylation enrichment [10]: 3.46
phosphorylation enrichment [11]: 1.76
phosphorylation enrichment [12]: 1.66
phosphorylation enrichment [13]: 0.713
phosphorylation enrichment [14]: 2.79
phosphorylation enrichment [15]: 0.667
phosphorylation enrichment [16]: 1.13

Further lines, with some results ahead:

SH2 binding enrichment [1]: 0.866
SH2 binding enrichment [2]: 0.833
SH2 binding enrichment [3]: 0.939
Sequence: QCTSDYPEHVC [SART3_Y541]
phosphorylation enrichment [4]: 0.969
phosphorylation enrichment [5]: 0.523
phosphorylation enrichment [6]: 0.929
phosphorylation enrichment [7]: 0.583
phosphorylation enrichment [8]: 1.44
phosphorylation enrichment [9]: 0.831
phosphorylation enrichment [10]: 1.64
phosphorylation enrichment [11]: 1.36
phosphorylation enrichment [12]: 0.668
phosphorylation enrichment [13]: 0.565
phosphorylation enrichment [14]: 1.23
phosphorylation enrichment [15]: 0.605
phosphorylation enrichment [16]: 0.929

SH2 binding enrichment [1]: 1.23
SH2 binding enrichment [2]: 1.03
SH2 binding enrichment [3]: 1.01
Sequence: CTTIHHNYMCN [TP53_Y234_Y234H]
phosphorylation enrichment [4]: 0.586
phosphorylation enrichment [5]: 0.531
phosphorylation enrichment [6]: 0.486
phosphorylation enrichment [7]: 0.432
phosphorylation enrichment [8]: 0.649
phosphorylation enrichment [9]: 0.455
phosphorylation enrichment [10]: 0.835
phosphorylation enrichment [11]: 0.766
phosphorylation enrichment [12]: 0.412
phosphorylation enrichment [13]: 0.362
phosphorylation enrichment [14]: 0.525
phosphorylation enrichment [15]: 0.459
phosphorylation enrichment [16]: 0.601

SH2 binding enrichment [1]: 1.67
SH2 binding enrichment [2]: 9.73
SH2 binding enrichment [3]: 0.636
Sequence: NMRSTYAKLAA [SEC22B_Y193_H190R]
phosphorylation enrichment [4]: 0.403
phosphorylation enrichment [5]: 0.397
phosphorylation enrichment [6]: 0.373
phosphorylation enrichment [7]: 0.444
phosphorylation enrichment [8]: 0.561
phosphorylation enrichment [9]: 0.456
phosphorylation enrichment [10]: 0.587
phosphorylation enrichment [11]: 0.563
phosphorylation enrichment [12]: 0.439
phosphorylation enrichment [13]: 0.49
phosphorylation enrichment [14]: 0.453
phosphorylation enrichment [15]: 0.407
phosphorylation enrichment [16]: 0.359

SH2 binding enrichment [1]: 0.416
SH2 binding enrichment [2]: 0.624
SH2 binding enrichment [3]: 0.89
Sequence: VHKEGYNKLNQ [ZNF676_Y98]
phosphorylation enrichment [4]: 0.511
phosphorylation enrichment [5]: 0.331
phosphorylation enrichment [6]: 0.467
phosphorylation enrichment [7]: 0.463
phosphorylation enrichment [8]: 0.539
phosphorylation enrichment [9]: 0.381
phosphorylation enrichment [10]: 0.668
phosphorylation enrichment [11]: 0.55
phosphorylation enrichment [12]: 0.367
phosphorylation enrichment [13]: 0.426
phosphorylation enrichment [14]: 0.752
phosphorylation enrichment [15]: 0.38
phosphorylation enrichment [16]: 0.356

SH2 binding enrichment [1]: 0.653
SH2 binding enrichment [2]: 0.872
SH2 binding enrichment [3]: 1.11
Sequence: FGVVGYLAIMF [RNF175_Y155]
phosphorylation enrichment [4]: 0.819
phosphorylation enrichment [5]: 0.579
phosphorylation enrichment [6]: 0.795
phosphorylation enrichment [7]: 0.443
phosphorylation enrichment [8]: 1.44
phosphorylation enrichment [9]: 0.655
phosphorylation enrichment [10]: 1.45
phosphorylation enrichment [11]: 1.04
phosphorylation enrichment [12]: 0.484
phosphorylation enrichment [13]: 0.532
phosphorylation enrichment [14]: 1.37
phosphorylation enrichment [15]: 0.519
phosphorylation enrichment [16]: 0.474
